Source: paper PMC7893823

What was measured:
[1] = target: human SET8 (KMT5A Isoform 2), Q9NQR1-2; test: gel shift assay; settings: NCPapd 0.52 µM, dsDNA 50-mer competitor DNA included, read off a plot
[2] = target: nucleosome core particle (NCP) with human histones H2A, H2B, H3.1 and H4 and the 145-base pair Widom 601 DNA, P04908;P06899;P68431;P62805; test: gel shift assay; settings: NCP 0.52 µM, dsDNA 50-mer competitor DNA included, read off a plot

human SET8 (KMT5A Isoform 2), Q9NQR1-2, sequence (Q9NQR1 whole entry, looked up, canonical isoform): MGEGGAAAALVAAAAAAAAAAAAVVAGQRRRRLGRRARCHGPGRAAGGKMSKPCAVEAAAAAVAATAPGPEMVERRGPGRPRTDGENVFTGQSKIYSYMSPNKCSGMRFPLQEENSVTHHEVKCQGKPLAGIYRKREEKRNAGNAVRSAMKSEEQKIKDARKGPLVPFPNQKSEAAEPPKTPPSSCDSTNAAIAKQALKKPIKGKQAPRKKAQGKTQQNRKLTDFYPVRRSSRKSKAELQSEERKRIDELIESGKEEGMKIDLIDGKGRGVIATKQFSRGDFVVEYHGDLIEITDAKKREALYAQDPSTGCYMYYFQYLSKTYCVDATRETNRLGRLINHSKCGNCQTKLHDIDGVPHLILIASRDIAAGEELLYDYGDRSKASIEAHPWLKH

Substance	response ([1]; SET8 1.0 µM, parent: est. 61) [%]	response ([1]; SET8 2.1 µM, parent: est. 91) [%]	response ([2]; SET8 R188A/R192A 1.0 µM, parent: est. 61) [%]	response ([2]; SET8 R188A/R192A 2.1 µM, parent: est. 91) [%]
nucleosome core particle (NCP) with human histones H2A, H2B, H3.1 and H4 and the 145-base pair Widom 601 DNA (from UniProt P04908;P06899;P68431;P62805) H2A:E56T; H2A:E61T; H2A:E64T; H2A:D90S; H2A:E91T; H2A:E92T; H2B:E105T; H2B:E113T	4.5	13		
human SET8 (KMT5A Isoform 2) (from UniProt Q9NQR1-2) R188A; R192A			23	54
